Results reported in US20240166767A1 (SCIRHOM, published 2024).
Where a chain is given by its changes, count along the chain named.

T1: human iRhom1 full length wild type C-terminally tagged with 3 consecutive copies of the T7 epitope (human, UniProt Q96CC6 1-855)
T1 construct: also called hiR1-FL-WT-T7; human iRhom1 variant
T1 sequence: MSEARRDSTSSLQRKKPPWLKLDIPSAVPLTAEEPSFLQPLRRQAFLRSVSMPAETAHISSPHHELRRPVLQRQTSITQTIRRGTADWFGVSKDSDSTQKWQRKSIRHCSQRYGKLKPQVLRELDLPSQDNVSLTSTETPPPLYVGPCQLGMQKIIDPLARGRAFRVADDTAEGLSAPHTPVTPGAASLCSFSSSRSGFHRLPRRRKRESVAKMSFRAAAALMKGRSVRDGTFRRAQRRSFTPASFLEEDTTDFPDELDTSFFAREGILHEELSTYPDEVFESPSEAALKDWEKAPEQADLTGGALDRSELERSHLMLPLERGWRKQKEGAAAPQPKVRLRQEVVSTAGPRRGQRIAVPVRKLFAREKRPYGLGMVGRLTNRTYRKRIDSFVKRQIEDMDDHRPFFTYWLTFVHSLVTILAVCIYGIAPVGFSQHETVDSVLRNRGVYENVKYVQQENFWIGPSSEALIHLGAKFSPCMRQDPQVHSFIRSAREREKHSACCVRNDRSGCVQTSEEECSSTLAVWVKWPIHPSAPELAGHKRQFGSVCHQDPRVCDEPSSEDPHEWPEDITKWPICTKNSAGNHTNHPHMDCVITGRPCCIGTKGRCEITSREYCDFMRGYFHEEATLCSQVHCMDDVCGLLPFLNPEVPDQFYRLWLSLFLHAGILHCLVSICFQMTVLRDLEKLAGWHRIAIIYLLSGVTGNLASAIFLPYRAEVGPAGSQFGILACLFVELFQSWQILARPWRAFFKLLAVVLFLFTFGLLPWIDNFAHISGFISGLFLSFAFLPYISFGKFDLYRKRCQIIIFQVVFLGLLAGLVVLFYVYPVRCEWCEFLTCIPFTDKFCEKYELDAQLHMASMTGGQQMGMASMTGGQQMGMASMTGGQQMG

B1: humanized antibody 42-B-04 (antibody, V domains shown)
VH: QVTLRESGPALVKPTQTLTLTCTFSGFSLSTFGRGVGWIRQPPGKALEWLAHIWWDDEKYYNSALKSRLTISKDTSKNQVVLTITNMDPVDTATYYCARIQNYGSNYWYFDVWGQGTLVTVSS
VL: AIQLTQSPSSLSASVGDRVTITCRASSRISYMFWYQQKPGKAPKVLIYDTSNLASGVPSRFSGSGSGTDYTLTISSLQPEDFATYYCQQWNAYPLTFGQGTKLEIK
notes: Tested as whole humanized antibody produced in CHO cells and detected with anti-human IgG; the general methods speak of human IgG1/Kappa; also called clone 42-B-04
B2: humanized antibody 23-B-04 (antibody, V domains shown)
VH: B1 VH with R34M, Q101S, D111N
VL: B1 VL with R28S, I29V, F33Y
notes: Tested as whole humanized antibody produced in CHO cells and detected with anti-human IgG; the general methods speak of human IgG1/Kappa; also called clone 23-B-04
B3: humanized antibody 42-B-02 (antibody, V domains shown)
VH: B1 VH
VL: B1 VL with A92S
notes: Tested as whole humanized antibody from transient expression of heavy chain/kappa light chain pairs in CHO cells, detected with anti-human IgG; the general methods speak of human IgG1/Kappa; also called clone 42-B-02
B4: humanized antibody 16-B-07 (antibody, V domains shown)
VH: QVTLRESGPALVKPTQTLTLTCTFSGFSLSTFALGVGWIRQPPGKALEWLAHIWWDEDKYYNPALKSRLTISKDTSKNQVVLTITNMDPVDTATYYCARITTYYYGMDYWGQGTLVTVSS
VL: EIVMTQSPDFQSVTPKEKVTITCRASQSIGNHLHWYQQKPDASPKLLIKYASQSISGVPSRFSGSGSGTDFTLTINSLEAEDAATYFCQQSYQWPLTFGQGTKLEIK
notes: Tested as whole humanized antibody produced in CHO cells and detected with anti-human IgG; the general methods speak of human IgG1/Kappa; also called clone 16-B-07
B5: humanized antibody 16-B-03 (antibody, V domains shown)
VH: B4 VH with E57D
VL: B4 VL
notes: Tested as whole humanized antibody produced in CHO cells and detected with anti-human IgG; the general methods speak of human IgG1/Kappa; also called clone 16-B-03
B6: humanized antibody 16-B-05 (antibody, V domains shown)
VH: B4 VH
VL: B4 VL with Q93N
notes: Tested as whole humanized antibody produced in CHO cells and detected with anti-human IgG; the general methods speak of human IgG1/Kappa; The printed LCVD reads SRESGSG where the printed cDNA encodes SRFSGSG; also called clone 16-B-05

biological target: T1, human iRhom1 full length wild type …; assay: FACS on MEF-DKO-hiR1-FL-WT-T7 cells
Protocol: In brief, in addition to immortalized MEF-DKO-EV control cells and MEF-DKO-hiR2-FL-WT-T7 cells (as already described in example 3), MEF-DKO-hiR1-FL-WT-T7 cells were harvested with 10 mM EDTA in PBS, washed and resuspended in FACS buffer (PBS, 3% FBS, 0.05% sodium azide), and seeded in Nunc U-bottom 96-well plates (Thermo Fisher Scientific, USA) at approximately 3×10⁵ cells per well. To pellet cells and remove supernatants, the plates were centrifuged at 1,500 rpm and 4° C. for 3 minutes. For primary staining, cells were resuspended in 100 μl per well of either FACS buffer alone (controls), mouse monoclonal anti-T7 IgG (Merck Millipore, USA) at 3 μg/ml FACS buffer or the humanized antibodies 16-B-03, 16-B-05, 16-B-07, 23-B-04, 42-B-02, 42-B-04 of the invention also at 3 μg/ml FACS buffer and incubated on ice for 1 hour. Afterwards, plates were centrifuged at 1,500 rpm and 4° C. for 3 minutes and washed twice with 200 μl per well of FACS buffer. For secondary staining of previous anti T7 staining, cells were spun down and resuspended in 100 μl per well of PE-conjugated goat anti-mouse IgG F(ab′)2 detection fragment (Dianova, Germany) diluted 1:100 in FACS buffer. For secondary staining of previous staining with humanized antibodies of invention, cells were spun down and resuspended in 100 μl per well of PE-conjugated goat anti-human IgG F(ab′)2 detection fragment (Dianova, Germany) diluted 1:100 in FACS buffer. Protected from light, the cell suspensions were incubated on ice for 1 hour. Plates were then centrifuged at 1,500 rpm and 4° C. for 3 minutes and washed three times with 200 μl per well of FACS buffer. Finally, cells were resuspended in 150 μl per well of FACS buffer and analyzed using a BD Accuri™ C6 Plus flow cytometer (Becton Dickinson, Germany).

Row | Binder | binding result
1 | B1 | no binding (tested: 3 µg/ml)
2 | B2 | no binding (tested: 3 µg/ml)
3 | B3 | no binding (tested: 3 µg/ml)
4 | B4 | no binding (tested: 3 µg/ml)
5 | B5 | no binding (tested: 3 µg/ml)
6 | B6 | no binding (tested: 3 µg/ml)
